Sequences and labels used below:
B1: artificial receptor No. 40 (n=2): peptide building blocks HM MY (designed binder)
peptide 1: Ac-KAGAGHGM-NHMe
peptide 2: Ac-KAGAGMGY-NHMe
B2: artificial receptor No. 56 (n=3): peptide building blocks RM QH MY (designed binder)
peptide 1: Ac-KAGAGRGM-NHMe
peptide 2: Ac-KAGAGQGH-NHMe
peptide 3: Ac-KAGAGMGY-NHMe
B3: artificial receptor No. 70 (n=3): peptide building blocks RM HM DD (designed binder)
peptide 1: KAGAGRGM-NHMe
peptide 2: Ac-KAGAGHGM-NHMe
peptide 3: Ac-KAGAGDGD-NHMe
modifications: not fully specified (N-terminus)
B4: artificial receptor No. 61 (n=3): peptide building blocks RM QM MY (designed binder)
peptide 1: Ac-KAGAGRGM-NHMe
peptide 2: Ac-KAGAGQGM-NHMe
peptide 3: Ac-KAGAGMGY-NHMe
B5: artificial receptor No. 50 (n=3): peptide building blocks RM RY MY (designed binder)
peptide 1: KAGAGRGM-NHMe
peptide 2: Ac-KAGAGRGY-NHMe
peptide 3: Ac-KAGAGMGY-NHMe
modifications: not fully specified (N-terminus)
B6: artificial receptor No. 46 (n=3): peptide building blocks RM RY QH (designed binder)
peptide 1: KAGAGRGM-NHMe
peptide 2: Ac-KAGAGRGY-NHMe
peptide 3: Ac-KAGAGQGH-NHMe
modifications: not fully specified (N-terminus)
B7: artificial receptor No. 89 (n=3): peptide building blocks RY HM MY (designed binder)
peptide 1: Ac-KAGAGRGY-NHMe
peptide 2: Ac-KAGAGHGM-NHMe
peptide 3: Ac-KAGAGMGY-NHMe
B8: artificial receptor No. 72 (n=3): peptide building blocks RM MY DD (designed binder)
peptide 1: KAGAGRGM-NHMe
peptide 2: Ac-KAGAGMGY-NHMe
peptide 3: Ac-KAGAGDGD-NHMe
modifications: not fully specified (N-terminus)
B9: artificial receptor No. 71 (n=3): peptide building blocks RM MY TY (designed binder)
peptide 1: KAGAGRGM-NHMe
peptide 2: Ac-KAGAGMGY-NHMe
peptide 3: Ac-KAGAGTGY-NHMe
modifications: not fully specified (N-terminus)
B10: artificial receptor No. 69 (n=3): peptide building blocks RM HM TY (designed binder)
peptide 1: KAGAGRGM-NHMe
peptide 2: Ac-KAGAGHGM-NHMe
peptide 3: Ac-KAGAGTGY-NHMe
modifications: not fully specified (N-terminus)
B11: artificial receptor No. 278 (n=5): peptide building blocks RM RY QM MY TY (designed binder)
peptide 1: KAGAGRGM
peptide 2: KAGAGRGY
peptide 3: KAGAGQGM
peptide 4: KAGAGMGY
peptide 5: KAGAGTGY
modifications: not fully specified; N-terminal acetyl (Ac-HN-); C-terminal methyl amide (-C(O)-NH-CH3)
B12: artificial receptor No. 65 (n=3): peptide building blocks RM QY MY (designed binder)
peptide 1: KAGAGRGM-NHMe
peptide 2: Ac-KAGAGQGY-NHMe
peptide 3: Ac-KAGAGMGY-NHMe
modifications: not fully specified (N-terminus)
B13: artificial receptor No. 49 (n=3): peptide building blocks RM RY HM (designed binder)
peptide 1: KAGAGRGM-NHMe
peptide 2: Ac-KAGAGRGY-NHMe
peptide 3: Ac-KAGAGHGM-NHMe
modifications: not fully specified (N-terminus)
B14: artificial receptor No. 93 (n=3): peptide building blocks RY MY DD (designed binder)
peptide 1: Ac-KAGAGRGY-NHMe
peptide 2: Ac-KAGAGMGY-NHMe
peptide 3: Ac-KAGAGDGD-NHMe
B15: artificial receptor No. 68 (n=3): peptide building blocks RM HM MY (designed binder)
peptide 1: KAGAGRGM-NHMe
peptide 2: Ac-KAGAGHGM-NHMe
peptide 3: Ac-KAGAGMGY-NHMe
modifications: not fully specified (N-terminus)
B16: artificial receptor No. 15 (n=2): peptide building blocks RM MY (designed binder)
peptide 1: Ac-KAGAGRGM-NHMe
peptide 2: Ac-KAGAGMGY-NHMe
B17: artificial receptor No. 133 (n=4): peptide building blocks RM RY QH MY (designed binder)
peptide 1: KAGAGRGM-NHMe
peptide 2: Ac-KAGAGRGY-NHMe
peptide 3: Ac-KAGAGQGH-NHMe
peptide 4: Ac-KAGAGMGY-NHMe
modifications: not fully specified (N-terminus)
B18: artificial receptor No. 10 (n=2): peptide building blocks RM TY (designed binder)
peptide 1: KAGAGRGM-NHMe
peptide 2: Ac-KAGAGTGY-NHMe
modifications: not fully specified (N-terminus)
B19: artificial receptor No. 22 (n=2): peptide building blocks RY MY (designed binder)
peptide 1: Ac-KAGAGRGY-NHMe
peptide 2: Ac-KAGAGMGY-NHMe

Ends that are not written are not given here.

The subject of one test is Anti-FLAG® M2 monoclonal antibody.
Assay: not given
The conditions noted are these: cited from earlier work.
For “ASP-TYR-LYS-ASP-ASP-ASP-ASP-LYS [FLAG® peptide]”, the “binding by the commercially available antibody” value is listed as “bound”.

Another test deals with fluorescently labeled Anti-FLAG® M2 monoclonal antibody (Sigma). The test is described as follows: fluorescence microarray: peptides immobilized on epoxide slide, probed with fluorescently labeled antibody.
Details: not given
With B1, the Mean Fluorescence Units (fluorescence units) was determined as 46800. Regarding KAGAGMGY-NHMe (not fully specified (N-terminus)) [artificial receptor No. 7 (n=1): peptide building block MY], the Mean Fluorescence Units (fluorescence units) came to 64600. For B2, the Mean Fluorescence Units (fluorescence units) was found to be 32600. B3 yielded a Mean Fluorescence Units (fluorescence units) of 32500.

For the molecule B4, the Mean Fluorescence Units (fluorescence units) was found to be 47800. B5: the Mean Fluorescence Units (fluorescence units) is 54400. Molecule B6 gave a Mean Fluorescence Units (fluorescence units) of 39500.

As for B7, the Mean Fluorescence Units (fluorescence units) came out at 57200.

Regarding B8, the Mean Fluorescence Units (fluorescence units) turned out to be 52100. On the same count and under the same terms, to B9 belongs 47800; to B10, 39800; to B11, 65000. KAGAGRGM-NHMe (not fully specified (N-terminus)) [artificial receptor No. 1 (n=1): peptide building block RM] gave a Mean Fluorescence Units (fluorescence units) of 47700.

B12 yielded a Mean Fluorescence Units (fluorescence units) of 40900. With B13, the Mean Fluorescence Units (fluorescence units) came out at 39800. B14 displayed a Mean Fluorescence Units (fluorescence units) of 46700. Same read-out and setting: to B15 belongs 34500. The molecule B16 came in with a Mean Fluorescence Units (fluorescence units) of 64600. B17 came in with a Mean Fluorescence Units (fluorescence units) of 47600.

B18 showed a Mean Fluorescence Units (fluorescence units) of 35100. For the molecule B19, the Mean Fluorescence Units (fluorescence units) was 53500.

The subject of the next test is Anti-FLAG® M2 monoclonal antibody.
Assay: not given
Format: binding.
Details: not given
For the molecule “MET-ASP-TYR-LYS-ASP-HIS-ASP-GLY-ASP-TYR-LYS-ASP-HIS-ASP-ILE-ASP-TYR-LYS-ASP-ASP-ASP-ASP-LYS [3×FLAG® peptide]”, the “binding of anti-FLAG Mab in the microarray (fluorescence)” value is “bound”.

Source of the values: patent US7985715B2 (priority 2004, dated 2011).
